Source: patent US20220242950A1 (CANTARGIA, published 2022)

T1: human IL1RAP on the cell surface (human, UniProt Q9NPH3 21-570)
T1 sequence (looked up): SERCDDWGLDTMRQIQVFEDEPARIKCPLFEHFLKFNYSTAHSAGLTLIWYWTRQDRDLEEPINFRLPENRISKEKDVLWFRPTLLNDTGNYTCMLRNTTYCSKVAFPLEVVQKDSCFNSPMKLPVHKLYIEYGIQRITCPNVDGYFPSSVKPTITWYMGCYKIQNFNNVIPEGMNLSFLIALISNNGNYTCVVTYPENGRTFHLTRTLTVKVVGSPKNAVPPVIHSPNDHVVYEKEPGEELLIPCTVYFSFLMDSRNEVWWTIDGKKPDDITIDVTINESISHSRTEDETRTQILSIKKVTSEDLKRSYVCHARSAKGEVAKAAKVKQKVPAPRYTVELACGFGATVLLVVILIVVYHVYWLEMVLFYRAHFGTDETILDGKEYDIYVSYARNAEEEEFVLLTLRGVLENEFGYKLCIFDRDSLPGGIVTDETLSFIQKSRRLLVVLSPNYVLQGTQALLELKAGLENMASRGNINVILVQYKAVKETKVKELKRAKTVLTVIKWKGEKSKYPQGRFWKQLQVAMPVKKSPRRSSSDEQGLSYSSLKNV

T2: recombinant hIL1RAP Domain1+2+3 (aa21-367) (human, UniProt Q9NPH3 21-367)
T2 construct: Numbering on Uniprot Q9NPH3
T2 sequence (looked up): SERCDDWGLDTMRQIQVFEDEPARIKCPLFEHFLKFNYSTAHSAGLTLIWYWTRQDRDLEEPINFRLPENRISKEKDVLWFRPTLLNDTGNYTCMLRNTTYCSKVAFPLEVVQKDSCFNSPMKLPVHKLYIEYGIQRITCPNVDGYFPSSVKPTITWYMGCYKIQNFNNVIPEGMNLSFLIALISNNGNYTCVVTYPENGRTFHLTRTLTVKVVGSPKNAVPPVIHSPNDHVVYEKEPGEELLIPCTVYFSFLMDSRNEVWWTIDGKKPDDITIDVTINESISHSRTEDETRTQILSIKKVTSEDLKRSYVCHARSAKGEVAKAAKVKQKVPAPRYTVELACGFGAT

T3: recombinant mf IL1RAP aa21-367 (cynomolgus monkey (Macaca fascicularis), UniProt A0A2K5X5J5 21-367)
T3 construct: also called cynomolgus monkey IL1RAP; cyno IL1RAP
T3 sequence: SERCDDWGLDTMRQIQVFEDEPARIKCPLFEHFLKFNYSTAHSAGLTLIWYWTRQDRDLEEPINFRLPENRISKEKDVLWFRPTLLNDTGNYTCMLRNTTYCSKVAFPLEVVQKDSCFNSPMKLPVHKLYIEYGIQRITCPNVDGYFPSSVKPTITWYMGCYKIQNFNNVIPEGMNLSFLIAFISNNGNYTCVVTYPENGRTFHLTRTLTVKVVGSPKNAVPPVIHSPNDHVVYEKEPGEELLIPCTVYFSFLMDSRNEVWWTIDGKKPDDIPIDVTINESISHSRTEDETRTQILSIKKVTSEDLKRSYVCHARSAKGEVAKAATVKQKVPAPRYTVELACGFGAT

B1: h48D2 VH5:VL1 (antibody, human IgG1, kappa, L234A L235A, V domains shown)
VH: QEQLEESGGGLVKPGGTLSLTCTVSGPSLSHFDITWIRQAPGSGLEWIGTISPGVSTYYASWAKSRVTISVDTSLNTVSLKLSSVTAADTATYFCARGGVGSSWKAFDLWGPGTLVTISS
VL: DIVMTQSPSSLSASVGDRVTITCQASESISTALAWYQQKPGKAPKLLIYKASTLPSGVPSRFSGSGSGTDFTLTISSLQPEDFATYYCQQGFSSGNVHNAFGGGTKVVIKR
notes: Humanized; also called VL1:VH5
B2: h48D2 VH1:VL1 (antibody, human IgG1, kappa, L234A L235A, V domains shown)
VH: EVQLEESGGGLVKPGGSLRLSCAASGPSLSHFDITWVRQAPGKGLEWVSTISPGVSTYYASWAKSRFTISRDNSKNTLYLQMNSLRAEDTAVYYCARGGVGSSWKAFDLWGRGTLVTVSS
VL: DIVMTQSPSSLSASVGDRVTITCQASESISTALAWYQQKPGKAPKLLIYKASTLPSGVPSRFSGSGSGTDFTLTISSLQPEDFATYYCQQGFSSGNVHNAFGGGTKVVIKR
notes: Humanized; also called VL1:VH1
B3: h48D2 VH5:VL3 (antibody, human IgG1, kappa, L234A L235A, V domains shown)
VH: QEQLEESGGGLVKPGGTLSLTCTVSGPSLSHFDITWIRQAPGSGLEWIGTISPGVSTYYASWAKSRVTISVDTSLNTVSLKLSSVTAADTATYFCARGGVGSSWKAFDLWGPGTLVTISS
VL: DILLTQTPSVVSASVGDRVTITCQASESISTALAWYQQKPGQAPRLLIYKASTLPSGVPSRFRGSGSGTDFTLTITSLQPEDFATYYCQQGFSSGNVHNAFGGGTRLEIKR
notes: Humanized; also called VL3:VH5
B4: h48D2 VH5:VL2 (antibody, human IgG1, kappa, L234A L235A, V domains shown)
VH: QEQLEESGGGLVKPGGTLSLTCTVSGPSLSHFDITWIRQAPGSGLEWIGTISPGVSTYYASWAKSRVTISVDTSLNTVSLKLSSVTAADTATYFCARGGVGSSWKAFDLWGPGTLVTISS
VL: QIVLTQSPATLSASVGDRVTITCQASESISTALAWYQQKPGKAPKLLIYKASTLPSGVPSRFSGSGSGTEFTLTISSLQPDDSATYYCQQGFSSGNVHNAFGQGTKLEIKR
notes: Humanized; also called VL2:VH5
B5: h48D2 VH1:VL4 (antibody, human IgG1, kappa, L234A L235A, V domains shown)
VH: EVQLEESGGGLVKPGGSLRLSCAASGPSLSHFDITWVRQAPGKGLEWVSTISPGVSTYYASWAKSRFTISRDNSKNTLYLQMNSLRAEDTAVYYCARGGVGSSWKAFDLWGRGTLVTVSS
VL: ELVMTQSPSSVSASVGDRVTITCQASESISTALAWYQQKPGKAPKLLIYKASTLPSGVPSRFSGSGSGTDFTLTINSLQPEDFATYYCQQGFSSGNVHNAFGGGTKVEIKR
notes: Humanized; also called VL4:VH1
B6: h48D2 VH1:VL3 (antibody, human IgG1, kappa, L234A L235A, V domains shown)
VH: EVQLEESGGGLVKPGGSLRLSCAASGPSLSHFDITWVRQAPGKGLEWVSTISPGVSTYYASWAKSRFTISRDNSKNTLYLQMNSLRAEDTAVYYCARGGVGSSWKAFDLWGRGTLVTVSS
VL: DILLTQTPSVVSASVGDRVTITCQASESISTALAWYQQKPGQAPRLLIYKASTLPSGVPSRFRGSGSGTDFTLTITSLQPEDFATYYCQQGFSSGNVHNAFGGGTRLEIKR
notes: Humanized; also called VL3:VH1
B7: h48D2 VH2:VL1 (antibody, human IgG1, kappa, L234A L235A, V domains shown)
VH: EVQLVESGGALVQPGGSLRLSCIVSGPSLSHFDITWFRQAPGKGLEWVATISPGVSTYYASWAKSRFTISTDTSKNTLFLQMDSLRAEDTAVYYCARGGVGSSWKAFDLWGPGTLVTVSS
VL: DIVMTQSPSSLSASVGDRVTITCQASESISTALAWYQQKPGKAPKLLIYKASTLPSGVPSRFSGSGSGTDFTLTISSLQPEDFATYYCQQGFSSGNVHNAFGGGTKVVIKR
notes: Humanized; also called VL1:VH2
B8: h48D2 VH1:VL2 (antibody, human IgG1, kappa, L234A L235A, V domains shown)
VH: EVQLEESGGGLVKPGGSLRLSCAASGPSLSHFDITWVRQAPGKGLEWVSTISPGVSTYYASWAKSRFTISRDNSKNTLYLQMNSLRAEDTAVYYCARGGVGSSWKAFDLWGRGTLVTVSS
VL: QIVLTQSPATLSASVGDRVTITCQASESISTALAWYQQKPGKAPKLLIYKASTLPSGVPSRFSGSGSGTEFTLTISSLQPDDSATYYCQQGFSSGNVHNAFGQGTKLEIKR
notes: Humanized; also called VL2:VH1
B9: h48D2 VH5:VL5 (antibody, human IgG1, kappa, L234A L235A)
heavy: not shown
light: APVLTQSPATLEASVGDRVTITCQASESISTALAWYQQKPGQPPKLLIYKASTLPSGVPSRFSGSGSGTEFTLTISDLESDDAATYYCQQGFSSGNVHNAFGGGTEVVVKRTVAAPSVFIFPPSDEQLKSGTASVVCLLNNFYPREAKVQWKVDNALQSGNSQESVTEQDSKDSTYSLSSTLTLSKADYEKHKVYACEVTHQGLSSPVTKSFNRGEC
notes: Humanized; also called VL5:VH5

Columns and labels:
[1] = biological target: T1, human IL1RAP on the cell surface; assay: cell-based or functional assay
[2] = biological target: T2, recombinant hIL1RAP Domain1+2+3 …; assay: bio-layer interferometry, human IL1RAP
Method: Affinity measurements were done on BLItz™ Label-Free Protein Analysis System from ForteBio, using the Basic Kinetics module in the BLItz Pro 1.3.1.3 software from Molecular Devices. Protein A biosensors were hydrated in blocking buffer (PBS, 0.5% BSA, 0.05% Tween 20, pH 7.4) for minimum 10 min at room temperature before coating. Protein A biosensors were coated with antibodies by dipping the biosensors in 200 μl of antibody solution (10 μg/ml in blocking buffer) for 30 min at room temperature. The sensors were then incubated in 200 μl blocking buffer for at least 10 min before use. […] The baseline was made in blocking buffer with a duration time of 30 sec. Association was made for 120 sec in hIL1RAP followed by 120 sec dissociation in blocking buffer.
The antibodies were characterized for A) binding (ELISA analysis, human and cynomolgus monkey IL1RAP), B) inhibition of cytokine signaling (HEK-Blue™ assay), C) affinity (Bio-layer interferometry), D) size heterogeneity (SE-HPLC) and E) yield (concentration, A280). […] SE-HPLC was performed using standard procedures and PBS as running buffer. Affinity and cytokine inhibition were measured as previously described in Example 10. All 25 humanized clones were analyzed for blocking activity on IL-1α, IL-1β and IL-33 signaling while only the clones that had retained the inhibitory activity similar to chimeric 48D2 were analyzed for IL-36 inhibition.
KD values for affinity towards human IL1RAP are shown in Table 11 for the humanized 48D2 variants. Affinity was measured using bio-layer interferometry. […] See also Table 4 for a direct comparison of chimeric 48D2, humanized 48D2 variant VH5:VL4, and a humanized and de-immunized 48D2 variant VH5.GL:VL4.

[3] = biological target: T2, recombinant hIL1RAP Domain1+2+3 …; assay: binding ELISA, coated recombinant hIL1RAP aa21-367
[4] = biological target: T3, recombinant mf IL1RAP aa21-367; assay: binding ELISA, coated recombinant mf IL1RAP aa21-367

Row | Binder | IC50 of IL-1α signaling (HEK-Blue assay) [1] [nM] | IC50 of IL-33 signaling (HEK-Blue assay) [1] [nM] | IC50 of IL-36α signaling (HEK-Blue assay) [1] [nM] | IC50 of IL-36γ signaling (HEK-Blue assay) [1] [nM] | Kd [2] [nM] | IC50 [3] [µg/mL] | IC50 [4] [µg/mL] | IC50 of IL-1β signaling (HEK-Blue assay) [1] [nM] | IC50 of IL-36β signaling (HEK-Blue assay) [1] [nM]
1 | B1 | 2.14 | 3.14 | 0.286 | 3.1 | 2.75 | 0.0248 | 0.0261 | – | –
2 | B2 | 227 | 254 | – | – | 30.3 | 0.0181 | 0.0226 | 51.6 | –
3 | B3 | 4.45 | 2.72 | 0.0779 | 0.167 | 2.33 | 0.0249 | 0.0288 | – | 17.4
4 | B4 | 3.77 | 0.647 | – | 0.253 | 4.27 | 0.0231 | 0.0218 | – | –
5 | B5 | 347 | – | – | – | 42.9 | 0.019 | 0.02 | 14.6 | –
6 | B6 | 231 | 195 | – | – | 35 | 0.0201 | 0.018 | 17.2 | –
7 | B7 | ~43800 | – | – | – | 13.2 | 0.0238 | 0.0279 | 2.75 | –
8 | B8 | 242 | – | – | – | 33.7 | 0.0182 | 0.0198 | 37.6 | –
9 | B9 | 6.3 | 1.23 | – | 0.192 | 1.68 | 0.0276 | 0.0313 | – | 11.1
